Laboratory results as given in FireProtDB (doi:10.1006/jmbi.1995.0323).

Conditions: Streptomyces albogriseolus, Thermal, DSC, reversible: yes, whole UniProt chain shown

B1: Subtilisin inhibitor wild type, P01006 (protein)
chain: MRNTGAGPSPSVSRPPPSAAPLSGAALAAPGDAPSALYAPSALVLTVGKGVSATTAAPERAVTLTCAPGPSGTHPAAGSACADLAAVGGDLNALTRGEDVMCPMVYDPVLLTVDGVWQGKRVSYERVFSNECEMNAHGSSVFAF
For B1, the unfolding free energy (pH 3.2, 53.36 °C, glycine 25 mM) was 5.55 kcal/mol, the Tm (pH 3.2, glycine 25 mM) was 53.4 °C and the “unfolding enthalpy (calorimetric)” value (pH 3.2, glycine 25 mM) was 106 kcal/mol. The unfolding free energy (pH 7, 82.21 °C, Sodium phosphate 25 mM) was 6.03 kcal/mol, the Tm (pH 7, Sodium phosphate 25 mM) was 82.2 °C and the “unfolding enthalpy (calorimetric)” value (pH 7, Sodium phosphate 25 mM) was 190 kcal/mol. For the same protein, the unfolding free energy (pH 9.5, 80.7 °C, glycine 25 mM) was 6.04 kcal/mol, the Tm (pH 9.5, glycine 25 mM) was 80.7 °C and the “unfolding enthalpy (calorimetric)” value (pH 9.5, glycine 25 mM) was 186 kcal/mol.
